Biological target: PHR1-His (UniProt Q94CL7 1-409)
Assay: EMSA; without SnRK1 (unphosphorylated); 10 mM Tris-HCl pH 8.0, 100 mM NaCl, 10% glycerol, 2 mM DTT, 0.05% NP-40; 0.5 ug protein in 30 ul, 22 C, 30 min; 4.5% acrylamide gel, 0.5x TBE
Conditions: protein: recombinant; tags: His (pET28b(+)); chain copies: 2; label: 32P 5' end label on sense strand (T4 PNK); blunt

PHR1-His, sequence (Q94CL7 whole entry): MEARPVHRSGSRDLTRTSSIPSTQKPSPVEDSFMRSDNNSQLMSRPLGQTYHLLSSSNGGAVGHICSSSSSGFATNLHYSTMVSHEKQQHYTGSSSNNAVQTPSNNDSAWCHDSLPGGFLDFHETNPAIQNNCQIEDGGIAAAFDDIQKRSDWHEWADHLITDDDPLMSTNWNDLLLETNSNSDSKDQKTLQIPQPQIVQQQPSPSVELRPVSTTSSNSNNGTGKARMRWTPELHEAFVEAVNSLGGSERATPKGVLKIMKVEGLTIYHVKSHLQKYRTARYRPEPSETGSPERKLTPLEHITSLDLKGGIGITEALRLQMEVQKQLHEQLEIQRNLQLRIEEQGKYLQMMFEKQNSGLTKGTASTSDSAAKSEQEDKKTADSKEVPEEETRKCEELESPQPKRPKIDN

B1: AtIPS1 P1BS probe (dsDNA)
DNA 1: CAATTTTGGTAACGGCATATTCCATCGGATGATCCAAAATTCTCAAAA
DNA 2: TTTTGAGAATTTTGGATCATCCGATGGAATATGCCGTTACCAAAATTG
  binding result: binds
